{"source": "patent US20260209386A1", "about": "(MYTHIC THERAPEUTICS, published 2026)", "binders": {"B1": {"name": "MYT11154 (antibody, V domains shown)", "VH": "EVQLVESGGGLVQPGGSLRLSCTASGFSLSTYAMSWVRQAPGKGLEWVGMIYINDNTYYASWAKGRFTISRDTSKNTVYLQMNSLRAEDTAVYFCARDIGISYYIGVSLWGQGTLVTVSS", "VL": "EIVMTQSPSTLSASVGDRVIITCQASQSIGTRHSWYQQKPGKAPKLLIYGASKLATGVPSRFSGSGSGAEFTLTISSLQPDDFATYYCLGEYSYTTTDGIAFGQGTKLTVL", "notes": "MYT9412 LC variant"}, "B2": {"name": "MYT11155 (antibody, V domains shown)", "VH": "B1 VH", "VL": "B1 VL with H33L, S34H", "notes": "MYT9412 LC variant"}, "B3": {"name": "MYT11156 (antibody, V domains shown)", "VH": "B1 VH", "VL": "B1 VL with H33L, G50H", "notes": "MYT9412 LC variant"}, "B4": {"name": "MYT11157 (antibody, V domains shown)", "VH": "B1 VH", "VL": "B1 VL with H33L, A51H", "notes": "MYT9412 LC variant"}, "B5": {"name": "MYT11158 (antibody, V domains shown)", "VH": "B1 VH", "VL": "B1 VL with H33L, S52H", "notes": "MYT9412 LC variant"}, "B6": {"name": "MYT11159 (antibody, V domains shown)", "VH": "B1 VH", "VL": "B1 VL with H33L, K53H", "notes": "MYT9412 LC variant"}, "B7": {"name": "MYT11160 (antibody, V domains shown)", "VH": "B1 VH", "VL": "B1 VL with H33L, L54H", "notes": "MYT9412 LC variant"}, "B8": {"name": "MYT11161 (antibody, V domains shown)", "VH": "B1 VH", "VL": "B1 VL with H33L, A55H", "notes": "MYT9412 LC variant"}, "B9": {"name": "MYT11162 (antibody, V domains shown)", "VH": "B1 VH", "VL": "B1 VL with H33L, T56H", "notes": "MYT9412 LC variant"}, "B10": {"name": "MYT11164 (antibody, V domains shown)", "VH": "B1 VH", "VL": "B1 VL with H33L, G90H", "notes": "MYT9412 LC variant"}, "B11": {"name": "MYT11167 (antibody, V domains shown)", "VH": "B1 VH", "VL": "B1 VL with H33L, S93H", "notes": "MYT9412 LC variant"}, "B12": {"name": "MYT11168 (antibody, V domains shown)", "VH": "B1 VH", "VL": "B1 VL with H33L, Y94H", "notes": "MYT9412 LC variant"}, "B13": {"name": "MYT11169 (antibody, V domains shown)", "VH": "B1 VH", "VL": "B1 VL with H33L, T95H", "notes": "MYT9412 LC variant"}, "B14": {"name": "MYT11170 (antibody, V domains shown)", "VH": "B1 VH", "VL": "B1 VL with H33L, T96H", "notes": "MYT9412 LC variant"}, "B15": {"name": "MYT11171 (antibody, V domains shown)", "VH": "B1 VH", "VL": "B1 VL with H33L, T97H", "notes": "MYT9412 LC variant"}, "B16": {"name": "MYT11173 (antibody, V domains shown)", "VH": "B1 VH", "VL": "B1 VL with H33L, G99H", "notes": "MYT9412 LC variant"}, "B17": {"name": "MYT11175 (antibody, V domains shown)", "VH": "B1 VH", "VL": "B1 VL with H33L, A101H", "notes": "MYT9412 LC variant"}, "B18": {"name": "MYT11179 (antibody, V domains shown)", "VH": "B1 VH", "VL": "B1 VL with H33L, E91A", "notes": "MYT9412 LC alanine variant"}, "B19": {"name": "MYT11256 (antibody, V domains shown)", "VH": "EVQLVESGGGLVQPGGSLRLSCTASGIHLSRYSMGWVRQAPGKGLEWVGIISYGGSTYYASWAKGRFTISRDTSKNTVYLQMNSLRAEDTAVYFCARVGYPGYSGYGYAFDAFDPWGQGTLVTVSS", "VL": "EIVMTQSPSTLSASVGDRVIITCQSSKSVYNDNWLSWYQQKPGKAPKLLIYGASTLASGVPSRFSGSGSGAEFTLTISSLQPDDFATYYCAGGYSSSSDNGFGQGTKLTVL", "notes": "MYT9792 variant, His at VH 28 (H1 03)"}, "B20": {"name": "MYT11254 (antibody, V domains shown)", "VH": "B19 VH with G26H, H28D", "VL": "B19 VL", "notes": "MYT9792 variant, His at VH 26 (H1 01)"}, "B21": {"name": "MYT11255 (antibody, V domains shown)", "VH": "B19 VH with I27H, H28D", "VL": "B19 VL", "notes": "MYT9792 variant, His at VH 27 (H1 02)"}, "B22": {"name": "MYT11260 (antibody, V domains shown)", "VH": "B19 VH with H28D, Y32H", "VL": "B19 VL", "notes": "MYT9792 variant, His at VH 32 (H1 07)"}, "B23": {"name": "MYT11262 (antibody, V domains shown)", "VH": "B19 VH with H28D, M34H", "VL": "B19 VL", "notes": "MYT9792 variant, His at VH 34 (H1 09)"}, "B24": {"name": "MYT11265 (antibody, V domains shown)", "VH": "B19 VH with H28D, I51H", "VL": "B19 VL", "notes": "MYT9792 variant, His at VH 51 (H2 02)"}, "B25": {"name": "MYT11266 (antibody, V domains shown)", "VH": "B19 VH with H28D, S52H", "VL": "B19 VL", "notes": "MYT9792 variant, His at VH 52 (H2 03)"}, "B26": {"name": "MYT11268 (antibody, V domains shown)", "VH": "B19 VH with H28D, G54H", "VL": "B19 VL", "notes": "MYT9792 variant, His at VH 54 (H2 05)"}, "B27": {"name": "MYT11269 (antibody, V domains shown)", "VH": "B19 VH with H28D, G55H", "VL": "B19 VL", "notes": "MYT9792 variant, His at VH 55 (H2 06)"}, "B28": {"name": "MYT11270 (antibody, V domains shown)", "VH": "B19 VH with H28D, S56H", "VL": "B19 VL", "notes": "MYT9792 variant, His at VH 56 (H2 07)"}, "B29": {"name": "MYT11273 (antibody, V domains shown)", "VH": "B19 VH with H28D, Y59H", "VL": "B19 VL", "notes": "MYT9792 variant, His at VH 59 (H2 10)"}, "B30": {"name": "MYT11274 (antibody, V domains shown)", "VH": "B19 VH with H28D, A60H", "VL": "B19 VL", "notes": "MYT9792 variant, His at VH 60 (H2 11)"}, "B31": {"name": "MYT11275 (antibody, V domains shown)", "VH": "B19 VH with H28D, S61H", "VL": "B19 VL", "notes": "MYT9792 variant, His at VH 61 (H2 12)"}, "B32": {"name": "MYT11276 (antibody, V domains shown)", "VH": "B19 VH with H28D, W62H", "VL": "B19 VL", "notes": "MYT9792 variant, His at VH 62 (H2 13)"}}, "note": "Numbering of substitutions follows the chain as printed.", "data": [{"molecular_target": "T1, Human PTK7 Protein, His Tag, Acro Biosystems (human, UniProt Q13308 31-704)", "T1 construct": "Bought recombinant protein; also called CCK4; not shown: His tag", "T1 sequence": "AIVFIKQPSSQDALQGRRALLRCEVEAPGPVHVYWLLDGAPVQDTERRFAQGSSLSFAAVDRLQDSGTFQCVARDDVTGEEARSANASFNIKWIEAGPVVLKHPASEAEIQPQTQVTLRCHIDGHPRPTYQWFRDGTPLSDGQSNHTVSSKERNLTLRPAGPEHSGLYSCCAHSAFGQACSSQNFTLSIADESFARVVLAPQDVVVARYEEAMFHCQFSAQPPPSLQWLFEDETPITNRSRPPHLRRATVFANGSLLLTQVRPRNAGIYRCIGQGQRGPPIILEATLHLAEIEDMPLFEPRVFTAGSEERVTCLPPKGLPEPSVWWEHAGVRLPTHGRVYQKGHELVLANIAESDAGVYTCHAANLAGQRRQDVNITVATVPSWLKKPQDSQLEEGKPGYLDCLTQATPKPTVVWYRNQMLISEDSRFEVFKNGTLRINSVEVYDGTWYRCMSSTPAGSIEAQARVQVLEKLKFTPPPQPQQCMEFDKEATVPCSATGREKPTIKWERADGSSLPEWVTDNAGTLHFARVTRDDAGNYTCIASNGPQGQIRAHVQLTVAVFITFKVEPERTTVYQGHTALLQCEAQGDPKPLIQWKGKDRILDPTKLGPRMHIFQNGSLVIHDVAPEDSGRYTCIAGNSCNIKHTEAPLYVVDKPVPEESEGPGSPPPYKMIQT", "assay": "BLI, anti-human Fc capture, 50 nM PTK7; 2 = substantially similar binding relative to parent", "values": [{"binder": "B1", "binding result": "binds"}, {"binder": "B2", "binding result": "binds"}, {"binder": "B3", "binding result": "binds"}, {"binder": "B4", "binding result": "binds"}, {"binder": "B5", "binding result": "binds"}, {"binder": "B6", "binding result": "binds"}, {"binder": "B7", "binding result": "binds"}, {"binder": "B8", "binding result": "binds"}, {"binder": "B9", "binding result": "binds"}, {"binder": "B10", "binding result": "binds"}, {"binder": "B11", "binding result": "binds"}, {"binder": "B12", "binding result": "binds"}, {"binder": "B13", "binding result": "binds"}, {"binder": "B14", "binding result": "binds"}, {"binder": "B15", "binding result": "binds"}, {"binder": "B16", "binding result": "binds"}, {"binder": "B17", "binding result": "binds"}, {"binder": "B18", "binding result": "binds"}]}, {"molecular_target": "T2, Human PTK7 Protein, His Tag, Acro Biosystems (human, UniProt Q13308 31-704)", "T2 construct": "Bought recombinant protein; also called CCK4; not shown: His tag", "T2 sequence": "T1 sequence", "assay": "BLI, anti-human Fc capture, 50 nM PTK7; 2 = substantially similar binding relative to parent", "values": [{"binder": "B19", "binding result": "binds"}, {"binder": "B20", "binding result": "binds"}, {"binder": "B21", "binding result": "binds"}, {"binder": "B22", "binding result": "binds"}, {"binder": "B23", "binding result": "binds"}, {"binder": "B24", "binding result": "binds"}, {"binder": "B25", "binding result": "binds"}, {"binder": "B26", "binding result": "binds"}, {"binder": "B27", "binding result": "binds"}, {"binder": "B28", "binding result": "binds"}, {"binder": "B29", "binding result": "binds"}, {"binder": "B30", "binding result": "binds"}, {"binder": "B31", "binding result": "binds"}, {"binder": "B32", "binding result": "binds"}]}]}
